The values below come from article PMC2364164.

For this experiment, the target named is recombinant fusion protein of MVP and glutathione-S-transferase (GST-MVP) (human) (UniProt Q14764). As to the kind of experiment: SPR; BIAcore 2000; GST-MVP immobilised on CM-5 sensorchip (2000 resonance units); soluble Fab flowed at 25 μl per minute, room temperature, HBS-EP (0.01 M HEPES pH 7.4, 0.15 M NaCl, 3 mM EDTA, 0.005% polysorbate 20); dissociation rates only. For orientation: Surface plasmon resonance follows binding to a sensor surface in real time, without labels.
UniProt Q14764, sequence (Q14764 whole entry, the tested form may be a part): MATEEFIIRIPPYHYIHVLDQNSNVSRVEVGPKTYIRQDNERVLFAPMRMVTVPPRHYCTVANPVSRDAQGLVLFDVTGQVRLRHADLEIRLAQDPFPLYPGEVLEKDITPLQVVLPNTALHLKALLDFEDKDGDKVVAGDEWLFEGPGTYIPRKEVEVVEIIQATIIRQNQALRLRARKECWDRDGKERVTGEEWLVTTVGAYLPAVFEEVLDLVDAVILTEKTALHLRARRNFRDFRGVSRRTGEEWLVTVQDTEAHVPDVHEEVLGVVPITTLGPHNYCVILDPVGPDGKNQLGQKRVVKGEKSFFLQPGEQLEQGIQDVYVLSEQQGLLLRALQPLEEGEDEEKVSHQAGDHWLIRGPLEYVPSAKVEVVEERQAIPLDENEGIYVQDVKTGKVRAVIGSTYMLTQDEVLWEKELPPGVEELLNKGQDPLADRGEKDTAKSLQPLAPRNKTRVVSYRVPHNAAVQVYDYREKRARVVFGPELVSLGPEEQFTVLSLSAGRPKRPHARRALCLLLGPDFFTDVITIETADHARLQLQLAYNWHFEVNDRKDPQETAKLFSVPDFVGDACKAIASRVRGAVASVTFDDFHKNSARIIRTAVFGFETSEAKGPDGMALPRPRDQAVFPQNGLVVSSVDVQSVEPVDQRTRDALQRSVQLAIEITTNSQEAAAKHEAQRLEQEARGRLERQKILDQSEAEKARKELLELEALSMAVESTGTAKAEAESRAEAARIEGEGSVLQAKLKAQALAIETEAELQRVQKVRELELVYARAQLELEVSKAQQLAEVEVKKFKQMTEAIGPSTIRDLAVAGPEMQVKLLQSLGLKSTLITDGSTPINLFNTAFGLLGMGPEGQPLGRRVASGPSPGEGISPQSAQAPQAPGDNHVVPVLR

B1: MVP-φ4 human Fab fragment (soluble) (Fab, V domains shown)
VH: QLQLQESGPGLVKPSETLSLTCSVSGGSISSGGYYWSWIRQRPGKGLEWIGYIYYSGSTTYNPSLKSRVTMSVDTSKNQFSLKLSSVTAADTAFYYCARQGVYYYYGMDVWGQGTTVTVSS
VL: NFMLTQPHSVSESPGKTITISCTRSSGSIGSNYVYWYQQRPDSSPTIVIYADNERPSGVPGRFSGSIDSSSNSASLTISGLRAEDEADYYCQSYSNNKWIFGGGTKVTVL
In general, koff refers to a measure of how fast the partners let go of each other. Turning to B1, the koff was found to be 0.0013 s⁻¹.
